1 substance from article PMC4245398 can be followed below.

The target of the assay is vimentin (UniProt P08670). As to the kind of experiment: co-immunoprecipitation, FAK-FLAG and endogenous vimentin. The following applies: reference: WT FAK-FLAG; sites Y397.

With “focal adhesion kinase (FAK) (from UniProt Q05397) Y397F FAK-FLAG”, the “binding against the reference” value is reported as “weaker”.
